According to patent publication US20080306007A1, “AGENTS FOR PROPHYLAXIS OR TREATMENT OF NEUROLOGICAL RELATED DISEASES AND CONDITIONS” (Newcastle Innovation Limited, priority 2007, published 2008):

Key:
[1] = target: amphiphysin I (native, from rat brain lysate) (rat) (UniProt O08838); experiment: peptide competition in GST-DynI-PRD pull-down from rat brain lysate; the filing later calls this an experimental artefact
[2] = target: dynamin I (native, from rat brain synaptosomes; total pool) (rat) (UniProt P21575); experiment: sequential GST pull-downs from synaptosome lysate; molar ratio GST-AmphI-SH3:dynamin above 2:1
dynamin I (native, from rat brain synaptosomes; total pool) (rat), sequence (P21575 whole entry): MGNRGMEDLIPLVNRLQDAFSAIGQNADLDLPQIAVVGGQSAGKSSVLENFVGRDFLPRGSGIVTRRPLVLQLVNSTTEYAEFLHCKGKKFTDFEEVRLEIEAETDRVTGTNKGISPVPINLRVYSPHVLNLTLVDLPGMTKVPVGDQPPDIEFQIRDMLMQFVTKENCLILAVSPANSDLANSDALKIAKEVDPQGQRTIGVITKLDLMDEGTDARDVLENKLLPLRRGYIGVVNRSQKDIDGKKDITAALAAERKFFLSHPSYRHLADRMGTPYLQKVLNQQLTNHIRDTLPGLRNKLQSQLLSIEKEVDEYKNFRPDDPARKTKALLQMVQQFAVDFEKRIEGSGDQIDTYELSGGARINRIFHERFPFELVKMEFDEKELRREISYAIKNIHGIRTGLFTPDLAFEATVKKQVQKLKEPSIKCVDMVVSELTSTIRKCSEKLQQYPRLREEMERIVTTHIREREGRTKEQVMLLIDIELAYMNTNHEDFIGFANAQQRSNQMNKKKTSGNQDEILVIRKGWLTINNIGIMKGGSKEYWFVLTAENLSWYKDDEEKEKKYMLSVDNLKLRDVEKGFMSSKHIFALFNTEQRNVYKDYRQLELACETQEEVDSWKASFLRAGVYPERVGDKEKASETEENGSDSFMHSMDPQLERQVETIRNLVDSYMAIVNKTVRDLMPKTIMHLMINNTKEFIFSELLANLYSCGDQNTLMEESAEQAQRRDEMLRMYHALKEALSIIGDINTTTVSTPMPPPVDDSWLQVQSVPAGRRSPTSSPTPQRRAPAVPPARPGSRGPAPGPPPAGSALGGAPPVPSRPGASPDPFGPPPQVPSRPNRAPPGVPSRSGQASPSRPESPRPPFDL

[3] = target: dynamin I (native, from rat brain synaptosomes; total pool) (rat) (UniProt P21575); experiment: GST pull-down from synaptosome lysate without salt
[4] = target: phospho-dynamin I (native, phosphorylated in vivo, from rat brain synaptosomes) (rat) (UniProt P21575); experiment: GST pull-down from 32Pi-labelled synaptosome lysate, 150 mM NaCl, quantitative analysis of autoradiograph against protein
phospho-dynamin I (native, phosphorylated in vivo, from rat brain synaptosomes) (rat), sequence (P21575 whole entry): as above

GST-EndoI-SH3, sequence (O35179 290-349): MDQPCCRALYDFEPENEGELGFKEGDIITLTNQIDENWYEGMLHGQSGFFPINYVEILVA
amphiphysin I (native, from rat brain lysate) (rat), sequence (O08838 whole entry): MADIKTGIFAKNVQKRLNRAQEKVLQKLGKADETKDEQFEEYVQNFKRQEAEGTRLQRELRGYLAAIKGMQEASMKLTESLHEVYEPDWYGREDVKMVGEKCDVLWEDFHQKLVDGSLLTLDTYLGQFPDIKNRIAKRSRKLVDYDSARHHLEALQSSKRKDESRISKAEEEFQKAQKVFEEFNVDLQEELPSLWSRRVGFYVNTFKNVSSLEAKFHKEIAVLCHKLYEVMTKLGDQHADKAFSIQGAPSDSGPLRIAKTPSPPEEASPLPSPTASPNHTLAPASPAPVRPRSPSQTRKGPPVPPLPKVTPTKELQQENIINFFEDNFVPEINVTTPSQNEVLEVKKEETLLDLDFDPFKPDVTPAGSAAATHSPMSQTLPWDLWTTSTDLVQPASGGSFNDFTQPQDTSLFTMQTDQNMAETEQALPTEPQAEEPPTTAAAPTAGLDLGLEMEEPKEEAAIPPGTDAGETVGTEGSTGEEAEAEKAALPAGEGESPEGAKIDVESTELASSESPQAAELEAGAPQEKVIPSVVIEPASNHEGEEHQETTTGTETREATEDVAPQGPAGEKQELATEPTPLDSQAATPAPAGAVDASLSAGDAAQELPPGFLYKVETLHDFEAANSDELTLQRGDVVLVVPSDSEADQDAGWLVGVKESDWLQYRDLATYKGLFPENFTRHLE

DynI783-796 peptide
fold higher peptide concentration needed for inhibition [1]: 10 fold

GST-AmphI-SH3
residual dynamin recovered in a second sequential pull-down [2]: < 1%

GST-EndoI-SH3
percent of synaptosomal dynamin I extracted [3]: > 95%

full-length GST-fusion protein of endophilin I (EndoI-FL)
binding to phospho-dynamin I relative to the total dynamin I bound to the beads (% of AmphI-SH3 control) [4]: 91

full-length GST-fusion protein of syndapin I (SdpnI-FL)
binding to phospho-dynamin I relative to the total dynamin I bound to the beads (% of AmphI-SH3 control) [4]: 56
